Patent US20250243271A1 (ALCEA THERAPEUTICS, published 2025)

Key:
Recombinant human Notch4 [1] = target: T1, Recombinant human Notch4 (human, UniProt Q99466 24-1447, limits assumed); experiment: SPR, antibody captured by anti-human polyclonal Fc antibodies on CM5 chip, Notch4 as analyte at 300 nM
T1 construct: also called Notch4 analyte; Notch4 (antigen)
T1 sequence: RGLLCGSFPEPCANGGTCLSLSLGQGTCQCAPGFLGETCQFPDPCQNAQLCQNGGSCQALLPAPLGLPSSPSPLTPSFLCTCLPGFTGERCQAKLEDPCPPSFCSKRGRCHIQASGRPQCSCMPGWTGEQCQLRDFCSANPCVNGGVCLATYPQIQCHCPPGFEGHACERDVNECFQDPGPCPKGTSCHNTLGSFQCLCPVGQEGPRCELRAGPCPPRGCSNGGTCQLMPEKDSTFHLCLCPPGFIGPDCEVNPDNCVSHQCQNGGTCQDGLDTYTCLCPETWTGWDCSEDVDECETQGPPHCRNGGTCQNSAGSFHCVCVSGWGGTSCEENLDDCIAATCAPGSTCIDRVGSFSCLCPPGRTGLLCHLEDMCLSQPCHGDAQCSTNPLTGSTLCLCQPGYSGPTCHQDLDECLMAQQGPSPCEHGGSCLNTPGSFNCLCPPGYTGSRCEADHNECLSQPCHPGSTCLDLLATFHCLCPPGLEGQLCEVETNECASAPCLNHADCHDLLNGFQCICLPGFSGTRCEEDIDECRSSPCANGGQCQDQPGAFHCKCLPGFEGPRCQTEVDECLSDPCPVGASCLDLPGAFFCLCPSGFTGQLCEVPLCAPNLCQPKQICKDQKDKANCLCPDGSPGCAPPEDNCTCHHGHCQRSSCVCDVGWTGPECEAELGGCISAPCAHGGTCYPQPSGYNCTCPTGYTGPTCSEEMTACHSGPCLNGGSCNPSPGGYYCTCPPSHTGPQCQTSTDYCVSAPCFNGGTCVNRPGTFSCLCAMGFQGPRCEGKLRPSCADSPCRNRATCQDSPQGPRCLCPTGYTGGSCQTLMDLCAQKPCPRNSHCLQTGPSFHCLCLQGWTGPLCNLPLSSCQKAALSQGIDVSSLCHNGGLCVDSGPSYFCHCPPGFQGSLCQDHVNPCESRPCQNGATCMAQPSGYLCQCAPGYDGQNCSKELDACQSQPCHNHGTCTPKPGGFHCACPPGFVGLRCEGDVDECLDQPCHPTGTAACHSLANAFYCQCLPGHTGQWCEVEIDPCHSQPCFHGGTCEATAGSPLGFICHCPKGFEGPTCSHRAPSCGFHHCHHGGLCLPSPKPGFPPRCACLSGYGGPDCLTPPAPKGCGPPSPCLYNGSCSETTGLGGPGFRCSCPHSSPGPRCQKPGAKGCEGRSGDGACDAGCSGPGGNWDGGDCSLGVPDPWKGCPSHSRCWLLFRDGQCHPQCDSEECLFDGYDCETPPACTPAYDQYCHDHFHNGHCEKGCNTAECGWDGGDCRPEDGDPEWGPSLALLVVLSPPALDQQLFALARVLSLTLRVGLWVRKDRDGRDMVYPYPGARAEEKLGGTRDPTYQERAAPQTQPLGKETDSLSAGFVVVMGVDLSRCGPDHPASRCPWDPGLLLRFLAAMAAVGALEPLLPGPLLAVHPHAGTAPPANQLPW
Method: (§1) Binding kinetics measurements. H07-Lib3 binding kinetics were determined using surface plasmon resonance (SPR). CM5 chips were coated with anti-human polyclonal Fc antibodies (Southern Biotech) to capture candidate antibody. Candidate antibody was diluted in HEPES-buffered saline with 0.005% surfactant P20 (HBS-P) and exposed to the surfaces for 20 minutes. […] To assess specificity, experiment was also run using Notch3 as an analyte at 300 nM.

Recombinant human Notch4 [2] = target: T1, Recombinant human Notch4; experiment: SPR, antibody captured by anti-human IgG Fc on HC30M chip, Notch4 as analyte
Method: Binding kinetics measurements. Following expression and purification, clones were characterized using surface plasmon resonance (SPR) to determine binding kinetics and epitope binding activity. HC30M chips (polycarboxylate hydrogel surfaces having medium charge density and 30 nm coating thickness) were coated with anti-human Fc antibodies (unlabeled goat anti-human IgG Fc from Southern Biotech) to capture the candidate antibodies. Candidate antibodies were diluted to 10 μg/mL in HEPES-buffered saline Tris-EDTA (HBSTE)) and exposed to the surfaces for 15 minutes. After stabilizing baseline using HBSTE, Notch4 analytes were injected sequentially from a lowest concentration of 0.41 nM to a highest concentration of 300 nM. (Notch4 was diluted in HBSTE+0.5 mg/mL bovine serum albumin (BSA) to obtain a series of 3-fold dilutions.) To assess specificity, experiments were also run using Notch2 as an analyte in a single injection at 100 nM in HBSTE+0.5 mg/mL.

Recombinant human Notch4 [3] = target: T1, Recombinant human Notch4; experiment: SPR, antibody captured by anti-human polyclonal Fc antibodies on CM5 chip, Notch4 as analyte at 300 nM; Table 4 SPR, Notch4 as analyte
Method: as §1

bovine serum albumin = target: T2, bovine serum albumin (bovine, UniProt P02769 25-607); experiment: polyreactivity assay, reactivity normalized to the highest value for each probe
T2 construct: Probe of the polyreactivity assay; also called BSA
T2 sequence (P02769 25-607 limits assumed): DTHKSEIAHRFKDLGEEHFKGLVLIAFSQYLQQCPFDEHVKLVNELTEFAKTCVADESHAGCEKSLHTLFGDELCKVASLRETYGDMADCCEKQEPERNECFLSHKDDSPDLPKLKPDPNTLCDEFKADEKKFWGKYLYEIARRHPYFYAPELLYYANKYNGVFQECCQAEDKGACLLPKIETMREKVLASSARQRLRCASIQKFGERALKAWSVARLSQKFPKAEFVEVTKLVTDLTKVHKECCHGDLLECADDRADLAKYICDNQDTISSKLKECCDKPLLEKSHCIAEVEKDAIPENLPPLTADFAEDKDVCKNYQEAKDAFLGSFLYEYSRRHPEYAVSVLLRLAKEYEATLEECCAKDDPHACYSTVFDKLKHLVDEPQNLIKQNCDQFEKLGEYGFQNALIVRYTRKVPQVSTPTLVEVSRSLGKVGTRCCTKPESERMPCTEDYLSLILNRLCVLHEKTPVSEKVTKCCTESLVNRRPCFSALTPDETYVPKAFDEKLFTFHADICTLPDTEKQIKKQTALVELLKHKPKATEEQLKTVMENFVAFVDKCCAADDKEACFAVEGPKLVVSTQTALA
Method: (§2) Polyreactivity assays. The non-specific reactivity of H07-Lib3 was evaluated towards cardiolipin, keyhole limpet hemocyanin (KLH), lipopolysaccharides (LPS), single-stranded DNA (ssDNA), double-stranded DNA (dsDNA), insulin, and bovine serum albumin (BSA). Additional therapeutic antibodies (bococizumab, efalizumab, gantenerumab, ibalizumab, lenzilumab, and panitumumab) were included in experiments for comparison. The reactivity percentage of each antibody was normalized to the highest reactivity value for each probe. Threshold for acceptable polyreactivity was set to 30% for all probes.

insulin = target: T3, insulin; experiment: as above
T3 construct: Probe of the polyreactivity assay
Method: as §2

[4] = target: T4, keyhole limpet hemocyanin; experiment: as above
T4 construct: Probe of the polyreactivity assay; also called KLH
Method: as §2

koff (Recombinant human Notch4 [1]): 0.00164 s⁻¹
kon (Recombinant human Notch4 [1]): 98300 M⁻¹ s⁻¹
Kd (Recombinant human Notch4 [2]): 1.4 nM
Kd (Recombinant human Notch4 [3]): 16.6 nM
normalized reactivity (bovine serum albumin): < 30%
normalized reactivity (insulin): < 30%
normalized reactivity [4]: < 30%
B1: H07-Lib3-Pl1 (antibody, V domains shown)
VH: EVQLVESGGGLVQPGGSLRLSCAASGLPFSSYAMSWVRQAPGKGLELVASIGTAGDAYYPDSVKGRFTISRDNAKNSLYLQMNSLRAEDTAVYYCARVGPFWQGFAFDIWGQGTMVTVSS
VL: DIVMTQSPLSLPVTPGEPASISCRSSQSLLHSSGHNYLHWYLQKPGQSPQLLIYMTYNRASGVPDRFSGSGSGTDFTLKISRVEAEDVGVYYCLQTTHWPHTFGGGTKVEIK
notes: Tested as an antibody captured by anti-human Fc antibodies
